# Article PMC4186839, “Streptomyces coelicolor SCO4226 Is a Nickel Binding Protein” (PLoS ONE, 2014)
# B1: SCO4226 (natural protein, Streptomyces coelicolor A3(2), UniProt Q9FCE4 1-82, looked up)
# chain: MAHFMDVHRGMHGITSDQLHQAHQADLAVEKDENVHFEQAWADPASGTIYCLSEGPSAEAVQRVHERAGHKADEIHEVPLSA
# modifications: seleno-methionine in place of methionine (Se-Met substituted protein)
# notes: SCO4226, 82-residue hypothetical protein encoded by the open reading frame SCO4226 of Streptomyces coelicolor A3(2); residues up to Ala82 (C-terminal carboxylate) are seen in the structure; No tag is named here; also called apo-SCO4226; Se-apo-SCO4226; source: E. coli B834 (DE3), Se-Met labelled, purified (nickel-chelating Sepharose, Superdex 75 gel filtration)
# Target: the molecule itself
# Assay: crystal structure; Se-Met labelled apo-SCO4226 crystals (1.30 Å) and the same crystals soaked about 1 hr in 0.8 M sodium citrate pH 6.5 with 0.8 M NiSO4 (Ni-SCO4226, 2.04 Å); space group P21; one dimer in each asymmetric unit
protein,measurement,value
B1,stoichiometry N,2
